We go through 41 sequences from the nanobody polyreactivity screen of Harvey et al. (2022).

This data set is described as follows: yeast display, Sf9 membrane polyspecificity reagent, FACS + sequencing; frameworks hold sequencing errors. A digest of the protocol: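 Nanobodies from a synthetic yeast display library (Saccharomyces cerevisiae BJ5465), induced 36–48 hours with galactose, were stained 1 hour at 4 °C with 10% biotinylated, detergent-solubilized Sf9 membrane reagent, enriched on streptavidin microbeads, then FACS-sorted. Anti-HA (expression) and streptavidin (reagent binding) fluorescence set low and high (top ~1%) gates. Polyreactivity labels come from the gate of origin. Genes were colony-PCR amplified, MiSeq 2 × 250 sequenced and filtered by CDR length.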
“QVQLVESCGGLVQAGGSLRLICAASGITFYRNAMGGYRQAPWKERELVAAITRRGGSTYYADSVKGRFTISRDNAKNTVYCQMNIVKPEDTAVYYCAAQDATRGDGYWGQGTQVTVSS”: the “polyreactivity (PSR sort gate)” value was “high polyreactivity”.

As to “QVQLVESGGGLVQAGGSLRLICAASGSIFQPYAMGWYRQAPGKERELVAAINGRGGSTHYADSVKGRFTISRDNAKNTVYLQMNSLKPEDTAVYYCAARYYRDYRWYTYAYDYWGQGTQVTVSS”, the “polyreactivity (PSR sort gate)” value is “high polyreactivity”.

On to “QVQLVESGGGLVQAGGSLRLSCAASGITFYRYAMGWYRQAPGKERALVAAISWRSGSTNYADSVKGRFTISRDNAKNTVYLQMNSLKPADTAVYYCAARVADYPLFGGSSYNRMEYWGQGTQVTVTS”, for which the “polyreactivity (PSR sort gate)” value is “low polyreactivity”.

For the sequence “QVQLVESGGGLVQAGGSLRLSCAASGSIFGYYAMGGYRQAPGKERELVAAISVNGGRTYYADSVKGRFTISRDNAKNTVYLQMNSLKPEDTAVYYCAAELVDYITFRGDYYYWGQGTQVTVSS”, the “polyreactivity (PSR sort gate)” value is “high polyreactivity”.

Regarding “QVQLEESGGGLVQAGGSLRLSCAASGFICKRYARGWYRQAPGKERELVAAITTSGGRTYYADSVKGRFTISRDNAKNTVYLQMNSLIPEDTAVYYCAAAQPGTNAYRVGSWGQGTQVTVSS”, the “polyreactivity (PSR sort gate)” value was “high polyreactivity”.

Turning to “QDQLVESGGGLVQAGGSLRLSCAASGSIFRYYAMGWYIQAPGKERELVAAITNSGGSTYYADSVKGRFTISRDNAKNTVYLQMNSLKPEDTAVYYCNARFRARPRMGYWGQGTQVTVSS”, the “polyreactivity (PSR sort gate)” value is “high polyreactivity”.

Turning to “QVQLVESGGGLLQAGGSLRLSCAASGFIFGGNAMGWYREAPGKERELVAAIRSGGSTYYADSVKVRFTISRDNAKNTVYLQMISLKPLDTAVDYCAVRLRYAYRARGNYWGQGTQVTVSS”, the “polyreactivity (PSR sort gate)” value is reported as “low polyreactivity”.

Regarding “QVQLVESGGGLVQAGGSLRLSCAASGITFKRYAMGWYRQAPGKEREMVAAITGIGGSTYYADSVKGRFTISRDNAMNTVYLQMNSLKPEDTAVYYCAARNNKKYDYWGQGTQVTVSS”, the “polyreactivity (PSR sort gate)” value is “high polyreactivity”.

In the case of “QVQLVESGGGLDQAGGSLRLSCAASGLTFRPYAMGGYRQAPWKERELDAGISGGGGRTYYADSVKGRFTISRDNAKNTVYFQMNSLKPEDTAVYYCATPSAYRYPYYYDYEYWGQGTQVTVSS”, the “polyreactivity (PSR sort gate)” value was “low polyreactivity”.

Regarding “QVQLVESGAGLVQAGGSLRLSCAASGRTFYYYAMGWYRQAPGKERELVAAISSNGGSTYADSVKGRFTISRDNAKNTVYLQMNSLKPEDTAVYYCAAEPWWQEGDYWGQGTQVTVSS”, the “polyreactivity (PSR sort gate)” value is given as “high polyreactivity”.

“QVQLVESGGGLVKAGGSLSLSCAASGFIFVNNVMGWYRQAPGKERELVAAISRRGGSTYYADSVKGRFTISRDNAKNTVYLQMNSLKPEDTAVYYCARRGPDFSWKYDYWGQGTQVTVSS”: the “polyreactivity (PSR sort gate)” value was “high polyreactivity”.

On to “QVQLVESGGGLVQAGGSLRLSCAASGFNFRRNAMGWYRQAPGKERELVAVITSSARTNYADSVKGRFTISRDNAKNTVYLQMNSLNPEDTAVYSCNAYRYRQSSSDKYGYWGQGTQVTVSS”, for which the “polyreactivity (PSR sort gate)” value is “high polyreactivity”.

In the case of “QVQLVESGGGLVQAGGSLRLSCAASGRTIASYTMGWYRPAPGKERELVAAISKSGGSTYYADSVKGRFTISRDNAKNTVYLQMNSLKPEDTAVYYCAKRRSGNVRKYDYWGQGTQVTVSS”, the “polyreactivity (PSR sort gate)” value is listed as “high polyreactivity”.

On to “QVQVVESGGGLVQAGGSLRLSCAASGSISDSYAMGWYRQAPGKERELVAAITSGDSTYYADSVKGRFTISRDNAKNTVYLQMNSLKPEDTAVYYCAKRVSRVRGYGFTDWSEYDYWGQVTQVTVSS”, for which the “polyreactivity (PSR sort gate)” value is “low polyreactivity”.

Consider “QVQLVESCAGLVQAGGSLRLTCADSGSIFDFNAMGWYRQVPGKEREWVAAITSGGSTNYADSVKGRFTNSRDNAKNTVYLQMNSLKPEDTAVYYCAARPARGASQGGYVRPWWYDSWGQGTQVTVSS”, for which the “polyreactivity (PSR sort gate)” value is “low polyreactivity”.

On to “QVQLVESGGGLVQAGGSLRLSCAASGFTFGDYAMGWYRQAPGKERELVAAISRSGSNTYYADSVKGRFTISRDNAKNTVYLQMNSQKPEDTAVYYCNADYDPEDMDYWGQGTQVTVSS”, for which the “polyreactivity (PSR sort gate)” value was “low polyreactivity”.

Turning to “QVQLVESGGGLVQAGCSVRLSCAATGSSFVDNAMGWYRQAPGKERELVAANDGSADSTYYADSVKGRFTISRDNAKNTVYLQLNSLKPEATAVYYCAAVDYWTKFDYWGQGTQVTVSS”, the “polyreactivity (PSR sort gate)” value is reported as “low polyreactivity”.

Take “QVQLVESGGGLVQAGGSLRLSCAASGRTIYQYAMGWYRQAPGKERELVAAISRGGSTNYADSLKGRFTISRDNAKNTVFLQMHSLKPEDTAVYYCASWYKFLSLKRLYERDYWGQGTQVTVSS”: the “polyreactivity (PSR sort gate)” value is reported as “high polyreactivity”.

Regarding “QVQLVESGGGLVQAGGSLRLSCAASGSTFESNAMRWYRQAPGKERELVAAISRGGNTYYADSVKGLFTISRDNAKYTVYLQMHSLKPEDTAVYYCNVDRGNPVPPSEYWGQGTKVTVSS”, the “polyreactivity (PSR sort gate)” value is on record as “low polyreactivity”.

For “QVQLVESGGGLVQAGGSLRLSCAASVIIFYPYAMGWSRQAPGKEMELVAAITARSANTYYADSVKGRFTISRDNAKNTVYLQMNSLKPEDTAVYYCAAAIYSYRTPYYYWGQGTQVTVSS”, the “polyreactivity (PSR sort gate)” value is “high polyreactivity”.

For the sequence “QVQLVESGVGLVQAGGSLRLSCAATGRIFDLYAMGWYRQAPGKEREFVAAISGRGGSTYYADSVKGRFTISRDNAKNTVYLEMNSLKPEDTAVYYCNAKRSLYGRYGYWGQGSQVTVSS”, the “polyreactivity (PSR sort gate)” value is given as “high polyreactivity”.

With “QVQLVESGGGLVQAGGSLRLSCAASGLTIVWYGMVWYRQAPGKERELVAAITRGGSTYYADSVKGRFTISRDNAKNTVYLQMNSLKPEDTAVYYCAATSTYRARFEYWGQGTQVTVSS”, the “polyreactivity (PSR sort gate)” value was “high polyreactivity”.

As for “QVQLVESGGGLVQAGGILRLSCAASGRIFFPNAMGWFRQAPGKERELVASISRGTSTNYADSVKGRVTISRDNAKNTVYLQMHSLKPEDTAVYYCAAKSAPYFGGRSRYAYWGQGTQVTVSS”, the “polyreactivity (PSR sort gate)” value is given as “low polyreactivity”.

On to “QVQLGESGGGLVHAGGSLRLSCAASGFIFGYYAMGWYRQAPGKERELVAAISQSTGSTYYADSVKGRFTISRDTAKNTVYLQMNSLKPEATAVYYCNAEGPEFTTWGYVYWAWGYGYWGQGTQVTVSS”, for which the “polyreactivity (PSR sort gate)” value is given as “low polyreactivity”.

Take “QVQLVESGGGLVQAGGSLRLSCAASGSTFEYYAMGSYRQAPGKERELVATISIDGRTNYADSVKGRFTISRDNAKNTVYLQMNSLKPEDTAVYYCAARPYWRQRYDYWGQGTQVTVSS”: the “polyreactivity (PSR sort gate)” value is reported as “low polyreactivity”.

Take “QVQLVESGGGLVQAGVSLRLSCAASGSTFRKYTMGWSRQAPGKERELVAAITYRGDRTYYADSVKGRFTISRDNAKNTVFIQMNSLIPEDTAVYYCASTSYYGAVWYIFYYWGQGTQVTVSS”: the “polyreactivity (PSR sort gate)” value was “high polyreactivity”.

With “QVQLVESGGGLVQAGGSLRLSCAASGFTFTWYAMGLYRQAPGKERELVAAISSGGGRTYYADSVKGRFTISRDNAKNTVYLQMNRLKPEDTAVYYCNAVAGGVYVDNGYDYWGQGTQVTVSS”, the “polyreactivity (PSR sort gate)” value is “high polyreactivity”.

For the sequence “PVQLVESGGGLVQAGGSLRLSCAASGRTFGYNAMGWYRQAPGKERELVASISYRGGSTYYADSVKGRFTISRDNAKNTVYLQMNSLKPEDTAVYYCNKYYVWREYYWGQGTQVNVSS”, the “polyreactivity (PSR sort gate)” value is recorded as “high polyreactivity”.

On to “QVQLVESGGGLVQARGSHRLSCAASGRTFVTNAMGWYRQAPGKERELVAAIRWSSDSTYYADSVKGRFTISRVIAKNTVYLQMNSLKPEYTAVYYCAARIPKQQGYGYWGQGTQVTVSS”, for which the “polyreactivity (PSR sort gate)” value is recorded as “high polyreactivity”.

For the sequence “QVQLVESGGGLVQAGGSLRLSCAASGSTFYRYAMGWYRQAPGKERELVATISKRGGSTYYADSVKGRFTISRDNAKYTVYLQMNSLKPEDTAVYYCNVRLEYRYYRGDYWGQGTQVTVSS”, the “polyreactivity (PSR sort gate)” value is recorded as “high polyreactivity”.

For “QVQLVESGGGLVQAGGSLRLSCAASGFIFGSYTMGWYRQAPGKERELVAAISSSVGRTYYADSVKGRFTISRDNAKNTVYLQMNSLKPEDTAVYYCAARRHGRVDYSQGSRESYYWGQGTQVTVSS”, the “polyreactivity (PSR sort gate)” value is recorded as “high polyreactivity”.

On to “QVQLVESGGGLVQAGGSLRLSCAASGYIFRSYAMGWYRQAPGKERELVAAITRSGGSTYYADSVKGRFTISRDNAKNTVYLQMNSPKPEDTAVYYCAVLPRGSNGMDYWGQGTQVTVSS”, for which the “polyreactivity (PSR sort gate)” value was “low polyreactivity”.

“QVQLVESGGGLVQAGGSLRLSCAASGIFRQNAMGWYRQAPGKERELVAGISQSGGSTYYADSVKGRFTISRDNAKNTVYLQMNSLKPEDTSVYYCALVSIWGYDYWGQGTQVTVSS”: the “polyreactivity (PSR sort gate)” value is on record as “low polyreactivity”.

“QVQLVESVGGLVQAGGSLRLSCAASGFIIRYYAMGWYRQAPGKERELVAVISSNGARTSYADSVKGRFTISRDNAKNTVYLQMNSLKPEDTAVYYCNARAWSRFPPVGHDYWGQGTQVTVSS”: the “polyreactivity (PSR sort gate)” value is given as “high polyreactivity”.

Turning to “QVQLVESGGGLVQAGGSLRLSCAASGRIFRYNAMGWYRQAPGKEREFVAAITSSGAGTHYADSVKGRFTISRDNAKNTVYLQMNSLKPEDTAVYYCNARGYYSKNSYDYYTGDYWGQGTQVTVSS”, the “polyreactivity (PSR sort gate)” value was “high polyreactivity”.

As for “QVQLVESGGGVVQAGGILSLSCAASGFTFATYAMGWYRQAPGKERELVAGITRSGGSTYYADSVKGRFTNSRYNAKNTVYLQMNSLKPEDTAVYYCNKAYGGDKYSGTYDYWGQGTQVTVSS”, the “polyreactivity (PSR sort gate)” value is “high polyreactivity”.

“QVQLVESGGGLVQAGGSLRLSCAASGIIFGSYAMGWYRQAPGKERELVAGISKIGGRTYYADSVKGRFTISRDNAKNTVYLQMNSLKPEDTAVYYCNKVRTRERTDYDYWGQGTQVTVSS”: the “polyreactivity (PSR sort gate)” value is “low polyreactivity”.

For “QVQLVESGGGLVQAGGSLRLSCAASGRTFNNYAMGWYRQAPGKERELVASIRKNGGSTYYADSVKGRFTISRDNAKNTVYLQMNSLKPEDTAVYYCGARYWGISRIFPSKYDYWGQGTQVTVSS”, the “polyreactivity (PSR sort gate)” value is given as “high polyreactivity”.

Turning to “QVQLLESVGGLVQAGGSLRLSCAASGRTFSRYAMGSYRQAPGKERELVATISSSGGTTYYADSVKGRFTISRDNAKNTVYLQMNSLKPEDTAVYYCNAESKKRTHASGYDYWGHGTQVTVSS”, the “polyreactivity (PSR sort gate)” value is “low polyreactivity”.

“HVQLQESGRRPGAAGGSPRMSCAASGNIYWVAVMGRYRQAPGEERELVASIGFGCTTYYADSVKCRFTISRDNAKNTVYLQMISLKPEDTAVYYCAAPHYDWGELDYWGQGTQVPVSS”: the “polyreactivity (PSR sort gate)” value was “low polyreactivity”.

Turning to “FVQAGGSLRLTCAASGSTFYGNAMGWYRQATGKERELVAGITGDGGSTYYADSVKGRFTISRDNAKNTVYLQMNSLKPEDTAVYYCAVDVIVLGQWPRQLDEFDYWGQGTQVTVSS”, the “polyreactivity (PSR sort gate)” value is “low polyreactivity”.
